Laboratory results reported in patent US20190359719A1 (SORRENTO THERAPEUTICS, published 2019).
Positions count from the first letter of the chain named.

B1: El-A10 (E1 derived anti-c-Met antibody) (antibody, V domains shown)
VH: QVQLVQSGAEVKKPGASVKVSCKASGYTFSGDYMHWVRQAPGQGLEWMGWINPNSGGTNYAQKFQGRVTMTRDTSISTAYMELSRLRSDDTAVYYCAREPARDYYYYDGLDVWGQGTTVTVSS
VL: QSVVTQPPSVSGAPGQRVTISCLGSASNIGAGHDVHWYQQLPGTAPKLLIYGNSNRPSGVPDRFSGSKSGTSASLAITGLQAEDEADYYCQSYSSSLSAYVFGTGTKVTVL
notes: The two labels are matched by their suffix only; Detected with anti-human IgG (gamma-chain specific); also called E1-A10; GCE-A10
B2: El-A14 (E1 derived anti-c-Met antibody) (antibody, V domains shown)
VH: QVQLVQSGAEVKKPGASVKVSCKASGYTFSGDYIHWVRQAPGQGLEWMGWINPNSGGTNYAQKFQGRVTMTRDTSISTAYMELSRLRSDDTAVYYCAREPARDYYYYDGLDVWGQGTTVTVSS
VL: B1 VL with L23I, A26S
notes: Label 'El-A14' matched to 'GCE-A14' by suffix only; Detected with anti-human IgG; also called E1-A14; GCE-A14
B3: El-B11 (E1 derived anti-c-Met antibody) (antibody, V domains shown)
VH: B2 VH
VL: B1 VL with L23I, A26S, H33Y, P57I, Y100V, V101L
notes: Label 'El-B11' matched to 'GCE-B11' by suffix only; Detected with anti-human IgG; also called E1-B11; GCE-B11
B4: El-A13 (E1 derived anti-c-Met antibody) (antibody, V domains shown)
VH: B2 VH with I34L
VL: B1 VL
notes: Label 'El-A13' matched to 'GCE-A13' by suffix only; Detected with anti-human IgG; also called E1-A13; GCE-A13
B5: El-B19 (E1 derived anti-c-Met antibody) (antibody, V domains shown)
VH: B2 VH with Y27F, A101G
VL: B1 VL with Y100V, V101L
notes: Label 'El-B19' matched to 'GCE-B19' by suffix only; Detected with anti-human IgG; also called E1-B19; GCE-B19
B6: El-A18 (E1 derived anti-c-Met antibody) (antibody, V domains shown)
VH: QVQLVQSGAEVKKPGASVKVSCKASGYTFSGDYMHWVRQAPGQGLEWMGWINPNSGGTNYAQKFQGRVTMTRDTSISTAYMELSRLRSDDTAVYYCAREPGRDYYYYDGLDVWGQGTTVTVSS
VL: B1 VL with L23I
notes: Label 'El-A18' matched to 'GCE-A18' by suffix only; Detected with anti-human IgG; also called E1-A18; GCE-A18
B7: El-BR1 (E1 derived anti-c-Met antibody) (antibody, V domains shown)
VH: B2 VH with Y27S, I34L
VL: B1 VL with H33Y, Y100V, V101L
notes: Label 'El-BR1' matched to 'GCE-BR1' by suffix only; Detected with anti-human IgG; also called E1-BR1; GCE-BR1
B8: El-A11 (E1 derived anti-c-Met antibody) (antibody, V domains shown)
VH: B2 VH with Y27F
VL: B1 VL with A26S, P57I, V101L
notes: Label 'El-A11' matched to 'GCE-A11' by suffix only; Detected with anti-human IgG; also called E1-A11; GCE-A11
B9: El-B13 (E1 derived anti-c-Met antibody) (antibody, V domains shown)
VH: B2 VH with Y27S
VL: B1 VL with Y100V, V101L
notes: Label 'El-B13' matched to 'GCE-B13' by suffix only; Detected with anti-human IgG; also called E1-B13; GCE-B13
B10: A1-4 anti-c-Met antibody (antibody, V domains shown)
VH: QVQLQESGPGLVKPSQTLSLTCTVSGGSISSGGYYWSWIRQHPGKGLEWIGESSHSGSTNYNPSLKSRVTISVDTSKNQFSLKLSSVTAADTAVYYCARGRDGYYFDAWGQGTLVTVSS
VL: LPVLTQPASVSGSPGQSITISCTGTSSDVGGYPYVSWYQQHPGKAPKLMIYVVSDRPSGVSTRFSGSKSGNTASLTISGLQAEDEADYYCSSYRSSSALVVFGGGTQLTVL
notes: Detected with anti-human IgG (gamma-chain specific)
B11: A1-24 anti-c-Met antibody (antibody, V domains shown)
VH: B10 VH with S54T, K66E, G103S, Y105D
VL: B10 VL with S27F, P33N, V52D, Y93F, S97A, Q107K
notes: as for B10
B12: A1-32 anti-c-Met antibody (antibody, V domains shown)
VH: B10 VH with S54T, K66D, F106L, A108Q
VL: B10 VL with S27F, V52D, Y93F, S97A, Q107K
notes: as for B10
B13: A1-9 anti-c-Met antibody (antibody, V domains shown)
VH: B10 VH with S53I, F106L, A108Q
VL: B10 VL with P33N, V52N, Y93F, Q107K
notes: as for B10
B14: A1-2 anti-c-Met antibody (antibody, V domains shown)
VH: B10 VH with S54T, Y105D
VL: B10 VL with S27F, P33N, V52D, Y93F, Q107K
notes: as for B10
B15: A1-6 anti-c-Met antibody (antibody, V domains shown)
VH: B10 VH with S53I, S54T, Y105D, F106I
VL: B10 VL with S27W, V52D, S96V, Q107K
notes: as for B10

Molecular target: T1, c-Met (HGF receptor) expressed on cells (human, UniProt P08581 25-1390)
T1 construct: whole, on cells; Endogenous c-Met on tumour cell lines and on human umbilical vein endothelial cells
T1 sequence (P08581 25-1390): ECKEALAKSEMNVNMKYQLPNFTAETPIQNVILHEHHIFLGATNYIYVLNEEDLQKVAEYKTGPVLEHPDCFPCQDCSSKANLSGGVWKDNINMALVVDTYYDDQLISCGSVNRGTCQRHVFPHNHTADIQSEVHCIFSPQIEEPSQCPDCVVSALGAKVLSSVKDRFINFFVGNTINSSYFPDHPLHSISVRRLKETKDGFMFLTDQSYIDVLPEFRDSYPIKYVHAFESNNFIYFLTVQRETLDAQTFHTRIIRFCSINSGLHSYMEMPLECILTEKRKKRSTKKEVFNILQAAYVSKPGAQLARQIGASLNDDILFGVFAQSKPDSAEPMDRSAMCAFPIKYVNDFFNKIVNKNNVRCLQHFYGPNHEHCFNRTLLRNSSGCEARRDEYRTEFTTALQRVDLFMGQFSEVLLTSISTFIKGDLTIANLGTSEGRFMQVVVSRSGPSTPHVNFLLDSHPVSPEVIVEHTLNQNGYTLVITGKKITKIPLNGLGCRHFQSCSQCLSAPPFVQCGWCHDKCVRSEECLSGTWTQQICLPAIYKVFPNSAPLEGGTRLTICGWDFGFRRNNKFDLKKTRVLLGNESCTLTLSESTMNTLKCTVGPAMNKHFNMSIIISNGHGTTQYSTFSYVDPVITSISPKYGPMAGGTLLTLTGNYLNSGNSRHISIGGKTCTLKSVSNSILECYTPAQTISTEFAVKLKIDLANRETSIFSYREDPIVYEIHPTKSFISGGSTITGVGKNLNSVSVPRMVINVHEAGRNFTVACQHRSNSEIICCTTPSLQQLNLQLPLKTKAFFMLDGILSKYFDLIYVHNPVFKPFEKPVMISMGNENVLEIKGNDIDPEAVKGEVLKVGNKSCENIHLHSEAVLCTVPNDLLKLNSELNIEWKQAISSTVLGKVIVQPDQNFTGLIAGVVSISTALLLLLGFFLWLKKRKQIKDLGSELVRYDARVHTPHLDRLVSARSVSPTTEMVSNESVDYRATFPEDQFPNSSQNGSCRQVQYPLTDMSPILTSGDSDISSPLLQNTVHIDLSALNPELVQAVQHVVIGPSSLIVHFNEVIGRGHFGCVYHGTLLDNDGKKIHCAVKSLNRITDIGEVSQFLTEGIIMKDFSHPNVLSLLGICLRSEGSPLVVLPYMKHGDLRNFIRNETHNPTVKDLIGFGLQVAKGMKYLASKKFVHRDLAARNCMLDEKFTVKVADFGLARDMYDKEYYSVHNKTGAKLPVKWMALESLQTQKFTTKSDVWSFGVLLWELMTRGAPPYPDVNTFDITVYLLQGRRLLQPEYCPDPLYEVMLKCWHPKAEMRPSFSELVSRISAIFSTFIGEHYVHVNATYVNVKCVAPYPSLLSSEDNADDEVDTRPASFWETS
Experiment: flow cytometry, antibody titration on SK-O-V3 ovarian cancer cells, PE anti-human IgG
Protocol: (§1) This example illustrates in vitro data for anti-c-Met antibody cellular binding EC₅₀ measurements. […] In this example, DU-145 prostate cancer cells, SK-O-V3 ovarian cancer cells, or human umbilical vein endothelial cells (HUVEC) were aliquoted into the wells of a 96-well, v-bottom plate in FACS Buffer (PBS+2% FBS). A 16-point, 2 fold serial dilution curve of antibodies made in FACS Buffer was used to stain the cells. After 1 hr incubation, cells were washed 2× with FACS Buffer and resuspended in PE-conjugated, goat anti-human IgG (γ-chain specific) secondary antibody (Southern Biotech Cat #2040-09). Cells were further incubated for 0.5 hr and then washed 1× with FACS Buffer. Cells were resuspended in FACS Buffer and the median fluorescence intensity in the FL2-A channel was determined using the Intellicyt® HTFC flow cytometer. Data was collected and analyzed on the Intellicyt® HTFC flow cytometer using the ForeCyt® software. ND=Not Determined.

In order of falling EC50:
1. B6  1.15 nM
2. B5  0.852 nM
3. B7  0.467 nM
4. B3  0.41 nM
5. B8  0.2 nM
6. B9  0.191 nM
7. B4  0.159 nM
8. B1  0.153 nM
9. B2  0.12 nM

Molecular target: T1, c-Met (HGF receptor) expressed on cells
Experiment: flow cytometry, antibody titration on HUVEC cells, PE anti-human IgG
Protocol: as §1

In order of rising EC50:
1. B2  0.132 nM
2. B1  0.148 nM
3. B9  0.19 nM
4. B7  0.376 nM
5. B6  0.606 nM

Molecular target: T1, c-Met (HGF receptor) expressed on cells
Experiment: flow cytometry, antibody titration on DU-145 prostate cancer cells, PE anti-human IgG
Protocol: as §1, with “cells or” for “cells,”, “cancer” for “cancer cells, or human umbilical vein endothelial”, “cells” for “cells (HUVEC)”, “Determined” for “Determined.”

In order of falling EC50:
1. B12  0.064 nM
2. B13  0.058 nM
3. B10  0.017 nM
4. B11  0.003 nM

Molecular target: T1, c-Met (HGF receptor) expressed on cells
Experiment: flow cytometry, antibody titration on SK-O-V3 ovarian cancer cells, PE anti-human IgG
Remark: another data set of the same source
Protocol: as §1, with “cells or” for “cells,”, “cancer” for “cancer cells, or human umbilical vein endothelial”, “cells” for “cells (HUVEC)”, “Determined” for “Determined.”

In order of falling EC50:
1. B14  0.223 nM
2. B11  0.135 nM
3. B12  0.109 nM
4. B13  0.076 nM
5. B10  0.054 nM
6. B15  0.053 nM

Molecular target: T1, c-Met (HGF receptor) expressed on cells
Experiment: flow cytometry, antibody titration on DU-145 prostate cancer cells, PE anti-human IgG
Remark: another data set of the same source
Protocol: as §1

In order of falling EC50:
1. B7  3.36 nM
2. B5  3.35 nM
3. B4  0.362 nM
4. B3  0.34 nM
5. B8  0.26 nM
6. B9  0.251 nM
7. B2  0.212 nM
8. B1  0.2 nM
